Here are results for one variant from IntAct's records for PubMed 20708156.

The labels stand for the following.
B1: F-box/WD repeat-containing protein 1A (Homo sapiens), Q9Y297 (parent)
chain: MDPAEAVLQEKALKFMCSMPRSLWLGCSSLADSMPSLRCLYNPGTGALTAFQNSSEREDCNNGEPPRKIIPEKNSLRQTYNSCARLCLNQETVCLASTAMKTENCVAKTKLANGTSSMIVPKQRKLSASYEKEKELCVKYFEQWSESDQVEFVEHLISQMCHYQHGHINSYLKPMLQRDFITALPARGLDHIAENILSYLDAKSLCAAELVCKEWYRVTSDGMLWKKLIERMVRTDSLWRGLAERRGWGQYLFKNKPPDGNAPPNSFYRALYPKIIQDIETIESNWRCGRHSLQRIHCRSETSKGVYCLQYDDQKIVSGLRDNTIKIWDKNTLECKRILTGHTGSVLCLQYDERVIITGSSDSTVRVWDVNTGEMLNTLIHHCEAVLHLRFNNGMMVTCSKDRSIAVWDMASPTDITLRRVLVGHRAAVNVVDFDDKYIVSASGDRTIKVWNTSTCEFVRTLNGHKRGIACLQYRDRLVVSGSSDNTIRLWDIECGACLRVLEGHEELVRCIRFDNKRIVSGAYDGKIKVWDLVAALDPRAPAGTLCLRTLVEHSGRVFRLQFDEFQIVSSSHDDTILIWDFLNDPAAQAEPPRSPSRTYTYISR

The variants in the test derive from B1. Particulars: with mdm2_human MDM2, Q00987.
Sequence of mdm2_human MDM2, Q00987 (Q00987 whole entry, looked up): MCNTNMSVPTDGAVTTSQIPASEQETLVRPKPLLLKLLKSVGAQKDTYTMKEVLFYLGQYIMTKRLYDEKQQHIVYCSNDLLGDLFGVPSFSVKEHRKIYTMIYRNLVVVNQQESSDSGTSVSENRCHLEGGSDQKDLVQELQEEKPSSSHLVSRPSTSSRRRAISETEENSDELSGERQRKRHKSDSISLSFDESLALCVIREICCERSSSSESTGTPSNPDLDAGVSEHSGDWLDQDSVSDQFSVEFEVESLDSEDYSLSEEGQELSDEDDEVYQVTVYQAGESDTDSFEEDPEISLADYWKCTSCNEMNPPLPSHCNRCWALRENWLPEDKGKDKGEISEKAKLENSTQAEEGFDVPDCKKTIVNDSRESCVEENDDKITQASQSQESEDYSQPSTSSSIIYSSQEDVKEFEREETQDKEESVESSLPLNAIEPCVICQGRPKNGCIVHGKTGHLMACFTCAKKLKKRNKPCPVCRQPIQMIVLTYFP
Take R475A: the “effect of a mutation on the interaction” value is listed as “decreasing interaction”.
